Data: US20230146072A1 (Pfizer, published 2023)

Target: T1, mouse GUCY2c (mouse, UniProt Q3UWA6 20-1072)
T1 construct: whole, on cells; 300.19 cells over-expressing mouse GUCY2c, formalin-fixed paraffin-embedded cell pellets
T1 sequence (looked up): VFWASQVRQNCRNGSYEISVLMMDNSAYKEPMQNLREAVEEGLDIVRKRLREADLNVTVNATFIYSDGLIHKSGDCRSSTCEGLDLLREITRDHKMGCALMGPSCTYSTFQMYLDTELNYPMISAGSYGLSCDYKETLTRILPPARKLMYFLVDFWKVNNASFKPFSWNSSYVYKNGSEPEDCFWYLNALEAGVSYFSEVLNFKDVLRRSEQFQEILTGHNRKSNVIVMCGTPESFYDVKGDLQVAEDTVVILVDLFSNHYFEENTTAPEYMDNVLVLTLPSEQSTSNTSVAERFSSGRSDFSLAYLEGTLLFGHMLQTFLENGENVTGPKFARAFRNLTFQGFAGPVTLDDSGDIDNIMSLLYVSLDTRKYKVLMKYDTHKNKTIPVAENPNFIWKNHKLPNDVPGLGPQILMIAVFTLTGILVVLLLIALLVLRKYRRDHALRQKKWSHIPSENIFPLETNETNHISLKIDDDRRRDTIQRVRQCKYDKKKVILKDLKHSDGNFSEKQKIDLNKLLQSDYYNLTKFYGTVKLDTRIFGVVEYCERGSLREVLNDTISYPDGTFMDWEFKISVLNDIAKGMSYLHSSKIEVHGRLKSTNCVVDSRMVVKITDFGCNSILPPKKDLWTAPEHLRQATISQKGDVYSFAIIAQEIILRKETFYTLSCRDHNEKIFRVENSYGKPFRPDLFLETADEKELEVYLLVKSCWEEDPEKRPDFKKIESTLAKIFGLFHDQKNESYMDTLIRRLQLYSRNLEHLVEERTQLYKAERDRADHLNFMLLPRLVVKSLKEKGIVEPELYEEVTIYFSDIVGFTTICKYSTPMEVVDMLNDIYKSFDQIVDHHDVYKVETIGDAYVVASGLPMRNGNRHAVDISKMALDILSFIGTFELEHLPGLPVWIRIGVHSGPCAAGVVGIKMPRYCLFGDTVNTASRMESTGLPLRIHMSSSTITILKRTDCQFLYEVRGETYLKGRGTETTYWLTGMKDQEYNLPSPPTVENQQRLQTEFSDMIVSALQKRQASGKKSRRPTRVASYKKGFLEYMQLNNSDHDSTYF
Assay: IHC on FFPE pellets of 300.19 cells over-expressing mouse GUCY2c
Method: Empty holes were filled with paraffin and the array was allowed to warm at 40 ° C. in an incubator overnight to anneal the donor cores with the recipient block. Five micron sections of the cell microarray were cut, transferred to a water bath and placed on Superfrost Excell microscope slides (Fisher). Slides were allowed to dry overnight. After deparaffinization and rehydration of tissue sections, heat induced epitope retrieval was performed in the Retriever 2100 pressure cooker (Electron Microscopy Sciences) in Borg Decloaker buffer pH 9.5 (Biocare Medical) or pH 6.0 Citrate buffer (Thermo Scientific) followed by cooling to room temperature (RT). Endogenous peroxidase activity was inactivated with Peroxidazed 1 (Biocare Medical) for 10 m. Non-specific protein interactions were blocked for 10 m with Background Punisher (Biocare Medical). Each hybridoma was incubated without dilution for 1 h under both heat induced epitope retrieval conditions. Sections were rinsed in TBS and hybridoma binding was detected with Envision+ Mouse HRP (DAKO) for 30 m. Slides were rinsed in TBS and immunoreactivity was developed with Betazoid DAB Chromogen Kit (Biocare Medical) for 5 m, followed by rinses in distilled water. […] Slides were evaluated by a pathologist to assess immunoreactivity. […]

B1: Anti-GUCY2c antibody Ab288 (antibody, mouse IgG1, kappa, V domains shown)
VH: DVQLQESGPGLVKPSQSLSLTCTVTGYSITSDYAWNWIRQFPGNNLEWMGYISYSGSTRYNPSLKSRISITRDTSKNQFFLQLNSVTSEDTATYYCAREDGYVAMDYWGQGTSVTVSS
VL: DIVLTQSPASLAVSLGQRATISCRASESVEYFGTSFMQWYQQRPGQPPKLLIYAASNVESGVPVRFSGSGSGTDFSLNIHPVEEDDIAMYFCQQSRKVPWTFGGGTNLEIKR
Q: Does B1 bind?
A: no binding (tested: 2 µg/ml and 10 µg/ml)
